Assay results as given in patent US20080044815A1, “Genetic Screen for Interaction Interface Mapping” (priority 2003, published 2008).
Where a chain is given by its changes, count along the chain named. Entries after “also recorded” stand apart in the source; their conditions may differ.

B1: Leu-131-Arg: single point mutant of human JNK1 (SEQ ID NO: 1) (protein)
chain: MSRSKRDNNFYSVEIGDSTFTVLKRYQNLKPIGSGAQGIVCAAYDAILERNVAIKKLSRPFQNQTHAKRAYRELVLMKCVNHKNIIGLLNVFTPQKSLEEFQDVYIVMELMDANLCQVIQMELDHERMSYRLYQMLCGIKHLHSAGIIHRDLKPSNIVVKSDCTLKILDFGLARTAGTSFMMTPYVVTRYYRAPEVILGMGYKENVDLWSVGCIMGEMVCHKILFPGRDYIDQWNKVIEQLGTPCPEFMKKLQPTVRTYVENRPKYAGYSFEKLFPDVLFPADSEHNKLKASQARDLLSKMLVIDASKRISVDEALQHPYINVWYDPSEAEAPPPKIPDKQLDEREHTIEEWKELIYKEVMDLEERTKNGVIRGQPSPLAQVQQ
modifications: homo sapiens
B2: wildtype JNK1: FLAG-tagged wild-type human JNK1 (SEQ ID NO: 1) expressed from pCMV-FLAG-JNK1 (protein)
chain: B1 chain with R131L
modifications: FLAG tag; homo sapiens
B3: Arg-309-Trp: single point mutant of human JNK1 (SEQ ID NO: 1) (protein)
chain: B1 chain with R131L, R309W
modifications: homo sapiens
B4: Tyr-320-His: single point mutant of human JNK1 (SEQ ID NO: 1) (protein)
chain: B1 chain with R131L, Y320H
modifications: homo sapiens

Legend:
GST-MKK4(ED) = test: In vitro phosphorylation (activation) of immunoprecipitated JNK by constitutively active MKK4; format: biochemical; details: [32P]-ATP, relative to autophosphorylation
Experimental: FIG. 15a is a representation showing that JNK mutants were not activated by constitutively-active MKK4 (MKK4(ED)) or MKK7. […] JNK proteins were immunoprecipitated from transfected cell lysates, and immunoprecipitates were used as the substrates in in vitro kinase assays with GST-MKK4(ED). Following separation by SDS-PAGE, activation of JNK and mutant proteins was assessed by autoradiography (upper panel) (n=2). Coomassie Blue staining (lower panel) confirmed substrate loading.
FLAG-JNK1 proteins were immunoprecipitated by addition of anti-FLAG M2 (SIGMA) and incubation for 1 h on ice and then addition of Protein G-Sepharose and incubation at 4° C. for 2 h with rotation. Immunocomplexes were washed three times with lysis buffer, then once with reaction buffer (20 mM HEPES, 20 mM MgCl2, 20 mM β-glycerophosphate, 500 μM DTT, 100 μM Na3VO4; pH 7.6). For assays of JNK activity, the washed complexes were resuspended in 40 μL of reaction buffer containing 10 μg GST-c-Jun (1-135), 20 μM ATP and 1 μCi [λ-^32P]ATP and incubated at 30° C. for 30 min. Reactions were stopped by addition of 3× SDS-PAGE Sample Buffer and proteins were separated by SDS-PAGE. JNK activity towards GST-c-Jun (1-135) was visualized by autoradiography and quantitated by Cerenkov counting. For assays of JNK activation, the washed beads were incubated with 30 μL of reaction buffer containing 20 μM ATP, 5 μCi [λ-^32P]ATP and 1 μg of GST-MKK4(ED) at 30° C. for 1 h with occasional mixing. After removal of the supernatant, the beads were washed in 200 μl ice-cold lysis buffer and then heated for 5 min at 100° C. in 15 μL of 3× SDS-PAGE sample buffer, prior to separation by SDS-PAGE. Gels were Coomassie-stained, dried and used for autoradiography. Gel bands corresponding to FLAG-JNK were excised from the gels and their radioactivity quantitated by Cerenkov counting. Where immunoprecipitated GST-MKK7β1 was used to activate JNK, reactions were performed as above, but with 1 μCi [λ-^32P]ATP and incubation at 30° C. for 30 min.

MKK7 = molecular target: T1, MKK7 (Mus musculus, UniProt Q8CE90); test: Phospho-blotting for dual-phosphorylated JNK in COS cells co-transfected with MKK7; format: cell-based; details: antibody to dual-phosphorylated JNK
T1 construct: expressed in transfected cells; host or cells: COS cells
T1 sequence (Q8CE90 1-419 isoform Q8CE90-2): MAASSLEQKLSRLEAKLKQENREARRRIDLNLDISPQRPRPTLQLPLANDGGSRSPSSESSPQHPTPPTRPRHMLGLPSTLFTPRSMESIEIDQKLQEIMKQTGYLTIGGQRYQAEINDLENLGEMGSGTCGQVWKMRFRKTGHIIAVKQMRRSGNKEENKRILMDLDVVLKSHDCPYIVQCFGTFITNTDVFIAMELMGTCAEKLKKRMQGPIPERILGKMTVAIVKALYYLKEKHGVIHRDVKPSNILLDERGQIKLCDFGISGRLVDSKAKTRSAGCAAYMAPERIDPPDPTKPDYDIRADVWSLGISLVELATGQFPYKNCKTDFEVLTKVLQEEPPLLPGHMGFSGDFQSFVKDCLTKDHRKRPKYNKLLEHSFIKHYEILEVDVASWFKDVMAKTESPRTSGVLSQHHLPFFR

TI-JIP = molecular target: T2, TI-JIP (Homo sapiens, UniProt Q9UQF2); test: Yeast two-hybrid screening / β-galactosidase overlay assay of JNK1 point mutants for interaction with TI-JIP; format: cell-based; details: single point mutants of JNK1, full-length expression confirmed by Western blot
T2 construct: Oligonucleotides encoding TI-JIP were annealed; expressed in transfected cells; host or cells: yeast diploids, RFY 206 (pSH18-34, pGILDA-TI-JIP) mated to PRT 49 (JNK mutants in pJG4-5)

GST-c-Jun(1-135) = test: In vitro kinase assay of FLAG-immunoprecipitated JNK1 from transfected COS cells towards GST-c-Jun(1-135); format: biochemical
Experimental: FIG. 14b is a representation showing a typical autoradiograph (upper panel) illustrating phosphorylation of GST-c-Jun(1-135) by wild-type (WT) JNK and mutants (n=2) for COS cells transfected as described in the legend to FIG. 14a. Transfected cells were incubated without sorbitol or exposed to hyperosmotic shock (0.5 M sorbitol, 30 min) prior to lysis. FLAG-tagged JNK1 and mutants were immunoprecipitated from cell lysates and then assayed for activity towards GST-c-Jun(1-135) using in vitro kinase assays. Coomassie Blue staining (lower panel) confirmed substrate loading.
FIG. 14c is a photographic representation showing a typical autoradiograph (upper panel) illustrating phosphorylation of GST-c-Jun(1-135) by wild-type (WT) JNK and mutants (n=2) for COS cells transfected as described in the legend to FIG. 14a, or co-transfected with a constitutively-active MEKK1 construct (CA-MEKK1). […]
FLAG-JNK1 proteins were immunoprecipitated by addition of anti-FLAG M2 (SIGMA) and incubation for 1 h on ice and then addition of Protein G-Sepharose and incubation at 4° C. for 2 h with rotation. […] JNK activity towards GST-c-Jun (1-135) was visualized by autoradiography and quantitated by Cerenkov counting. […] Gel bands corresponding to FLAG-JNK were excised from the gels and their radioactivity quantitated by Cerenkov counting. […]

Molecule | phosphorylation/activation of JNK by active MKK4 (GST-MKK4(ED)) | phosphorylation/activation of JNK by MKK7 (MKK7) | interaction of JNK1 mutant with TI-JIP (TI-JIP) | interaction of JNK1 mutant with TI-JIP (TI-JIP; listed as L131→R131) | increase in c-Jun phosphorylation relative to cells transfected with JNK alone (GST-c-Jun(1-135); COS cells co-transfected with constitutively-active MEKK1 (CA-MEKK1)) [fold] | activation of c-Jun phosphorylation over corresponding unstimulated cells (GST-c-Jun(1-135); COS cells, hyperosmotic shock 0.5 M sorbitol, 30 min) [fold]
B1 | impaired in their activation | impaired in their activation | incapable of interaction with TI-JIP; also recorded: did not interact with TI-JIP | prevent interaction of JNK with TI-JIP | – | –
B2 | increased the phosphorylation | strongly phosphorylated by MKK7 | – | – | 240 | 5.5
B3 | impaired in their activation | – | – | – | – | –
B4 | impaired in their activation | – | – | – | – | –
